Measurements: patent US10919953 (dated 2021)
Numbering of substitutions follows the chain as printed. Like-named read-outs stand apart in the source and are kept apart here. Blank lines part the entries; values can stand above or below the binder they belong to.

Assays:
FcgRIIaR [1] = target: T1, FcgRIIaR (human, UniProt P12318); assay: SPR
T1 chain: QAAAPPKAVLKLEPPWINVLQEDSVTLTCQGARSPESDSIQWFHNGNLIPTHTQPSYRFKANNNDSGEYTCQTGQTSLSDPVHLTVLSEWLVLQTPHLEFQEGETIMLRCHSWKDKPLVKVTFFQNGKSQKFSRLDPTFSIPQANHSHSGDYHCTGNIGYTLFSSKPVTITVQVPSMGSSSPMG

FcgRIa [2] = target: T2, FcgRIa (human, UniProt P12314); assay: SPR
T2 chain: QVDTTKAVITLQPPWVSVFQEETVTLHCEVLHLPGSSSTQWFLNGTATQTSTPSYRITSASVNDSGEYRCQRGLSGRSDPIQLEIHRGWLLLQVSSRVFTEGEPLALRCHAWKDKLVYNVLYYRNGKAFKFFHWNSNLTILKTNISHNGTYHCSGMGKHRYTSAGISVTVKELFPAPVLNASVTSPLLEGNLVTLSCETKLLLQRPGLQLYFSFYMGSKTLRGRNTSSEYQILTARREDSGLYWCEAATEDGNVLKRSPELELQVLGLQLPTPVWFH

FcgRIIb [3] = target: T3, FcgRIIb (human, UniProt P31994); assay: SPR
T3 chain: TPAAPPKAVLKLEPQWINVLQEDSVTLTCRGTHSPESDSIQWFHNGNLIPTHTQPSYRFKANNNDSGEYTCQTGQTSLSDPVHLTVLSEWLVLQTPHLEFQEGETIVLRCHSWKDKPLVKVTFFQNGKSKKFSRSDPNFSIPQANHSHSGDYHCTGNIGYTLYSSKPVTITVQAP

FcgRIIaR [4] = target: T1, FcgRIIaR; assay: SPR
FcgRIa [5] = target: T2, FcgRIa; assay: SPR
FcgRIIb [6] = target: T3, FcgRIIb; assay: SPR
FcgRIIaH = target: T4, FcgRIIaH (human, UniProt P12318); assay: SPR
T4 chain: T1 chain with R134H

human FcRn = human FcRn (human, UniProt P55899); assay: SPR, pH 6.0, 25C
FcgRIa [7] = target: T2, FcgRIa; assay: SPR
FcgRIIb [8] = target: T3, FcgRIIb; assay: SPR
FcgRIa [9] = target: T2, FcgRIa; assay: SPR
FcgRIIb [10] = target: T3, FcgRIIb; assay: SPR
FcgRIIaR [11] = target: T1, FcgRIIaR; assay: SPR

B4: IL6R-AP009/IL6R-BP260/IL6R-L (antibody)
chain 1: QVQLQESGPGLVKPSETLSLTCAVSGHSISHDHAWSWVRQPPGEGLEWIGFISYSGITNYNPSLQGRVTISRDNSKNTLYLQMNSLRAEDTAVYYCARSLARTTAMDYWGEGTLVTVSSASTKGPSVFPLAPSSKSTSGGTAALGCLVKDYFPEPVTVSWNSGALTSGVHTFPAVLQSSGLYSLSSVVTVPSSSLGTQTYICNVNHKPSNTKVDKKVEPKSCDKTHTCPPCPAPDLLGDDSVFLFPPKPKDTLMISRTPEVTCVVVDVSDEDGEVKFNWYVDGVEVHNAKTKPREEQDNSTYRVVSVLTVLHQDWLNGKEYKCKVSNKALPRPIEKTISKAKGQPREPQVYTLPPSRKELTKNQVSLTCLVKGFYPSDIAVEWESNGQPENNYKTTPPVLDSDGSFFLYSKLTVDKSRWQQGNVFSCSVMHEALHNRYTQKSLSLSP
chain 2: B4 chain 1 with S126E, K358D, R437H, K441E
chain 3: not shown
Kd (FcgRIIaH): 5400 nM | Kd (FcgRIIaR [1]): 140 nM | Kd (FcgRIa [2]): 1.7 nM | Kd (FcgRIIb [3]): 4.2 nM

B6: Fv4-P587 (antibody)
chain 1: B4 chain 1 with D239G, V266I, S269A, D270E, D298Y, R332A, K358D, R437H
chain 2: DIQMTQSPSSLSASVGDSVTITCQASTDISSHLNWYQQKPGKAPELLIYYGSHLLSGVPSRFSGSGSGTDFTFTISSLEAEDAATYYCGQGNRLPYTFGQGTKVEIERTVAAPSVFIFPPSDEQLKSGTASVVCLLNNFYPREAKVQWKVDNALQSGNSQESVTEQDSKDSTYSLSSTLTLSKADYEKHKVYACEVTHQGLSSPVTKSFNRGEC
Kd (human FcRn): 1500 nM

B7: IL6R-BP208/IL6R-L (antibody)
chain 1: B4 chain 1 with D298Y, K358D, R437H, K441E
chain 2: not shown
Kd (FcgRIIaR [1]): 850 nM

B8: IL6R-BP256/IL6R-L (antibody)
chain 1: B4 chain 1 with S126D, D298Y, K358D, R437H, K441E
chain 2: not shown
Kd (FcgRIIaR [1]): 730 nM | Kd (FcgRIa [2]): 2 nM | Kd (FcgRIIb [3]): 87 nM

B10: IL6R-AP009/IL6R-BP259/IL6R-L (antibody)
chain 1: B4 chain 1
chain 2: B4 chain 1 with S126D, K358D, R437H, K441E
chain 3: not shown
Kd (FcgRIIaH): 6600 nM | Kd (FcgRIIaR [1]): 190 nM | Kd (FcgRIa [2]): 3.5 nM | Kd (FcgRIIb [3]): 3.9 nM

B11: IL6R-BP225/IL6R-L (antibody)
chain 1: B4 chain 1 with D235E, L236Y, D270H, G273P, D298Y, K328D, K358D, R437H, K441E
chain 2: not shown
Kd (FcgRIa [7]): 65 nM

B12: IL6R-AP002/IL6R-BP256/IL6R-L (antibody)
chain 1: B4 chain 1 with D298Y
chain 2: B4 chain 1 with S126D, D298Y, K358D, R437H, K441E
chain 3: not shown
Kd (FcgRIIaH): 4200 nM | Kd (FcgRIIaR [1]): 140 nM | Kd (FcgRIa [2]): 3.6 nM | Kd (FcgRIIb [3]): 4.1 nM

B13: IL6R-BP220/IL6R-L (antibody)
chain 1: B4 chain 1 with R332K, K358D, R437H, K441E
chain 2: not shown
Kd (FcgRIa [7]): 20 nM

B14: IL6R-AP029/IL6R-BP408/IL6R-L (antibody)
chain 1: B4 chain 1 with D270E
chain 2: B4 chain 1 with L237Q, D270E, K358D, R437H, K441E
chain 3: not shown
Kd (FcgRIIaR [4]): 860 nM | Kd (FcgRIa [5]): 20 nM | Kd (FcgRIIb [6]): 26 nM

B16: IL6R-BP237/IL6R-L (antibody)
chain 1: B4 chain 1 with L236Y, S269Q, K328A, R332K, K358D, R437H, K441E
chain 2: not shown
Kd (FcgRIIb [8]): 100 nM

B18: IL6R-AP002/IL6R-BP257/IL6R-L (antibody)
chain 1: B4 chain 1 with D298Y
chain 2: B4 chain 1 with S126E, D298Y, K358D, R437H, K441E
chain 3: not shown
Kd (FcgRIIaH): 4900 nM | Kd (FcgRIIaR [1]): 130 nM | Kd (FcgRIa [2]): 1.9 nM | Kd (FcgRIIb [3]): 4.7 nM

B19: IL6R-AP029/IL6R-BP409/IL6R-L (antibody)
chain 1: B4 chain 1 with D270E
chain 2: B4 chain 1 with L237E, D270E, K358D, R437H, K441E
chain 3: not shown
Kd (FcgRIIaR [4]): 630 nM | Kd (FcgRIa [5]): 19 nM | Kd (FcgRIIb [6]): 15 nM

B21: IL6R-BP243/IL6R-L (antibody)
chain 1: B4 chain 1 with L236Y, D298Y, K358D, R437H, K441E
chain 2: not shown
Kd (FcgRIa [7]): 3 nM

B22: IL6R-BP249/IL6R-L (antibody)
chain 1: B4 chain 1 with L236Y, K358D, R437H, K441E
chain 2: not shown
Kd (FcgRIa [7]): 7 nM

B23: IL6R-BP239/IL6R-L (antibody)
chain 1: B4 chain 1 with L236Y, S269Q, K328A, K358D, R437H, K441E
chain 2: not shown
Kd (FcgRIIb [8]): 60 nM

B28: IL6R-BP228/IL6R-L (antibody)
chain 1: B4 chain 1 with D235E, L236Y, S269Q, D298Y, K328D, K358D, R437H, K441E
chain 2: not shown
Kd (FcgRIIb [8]): 40 nM

B29: IL6R-AP029/IL6R-BP407/IL6R-L (antibody)
chain 1: B4 chain 1 with D270E
chain 2: B4 chain 1 with L237D, D270E, K358D, R437H, K441E
chain 3: not shown
Kd (FcgRIIaR [4]): 630 nM | Kd (FcgRIa [5]): 13 nM | Kd (FcgRIIb [6]): 19 nM

B30: IL6R-BP246/IL6R-L (antibody)
chain 1: B4 chain 1 with S269Q, K328A, K358D, R437H, K441E
chain 2: not shown
Kd (FcgRIa [7]): 8 nM

B31: IL6R-AP029/IL6R-BP410/IL6R-L (antibody)
chain 1: B4 chain 1 with D270E
chain 2: B4 chain 1 with L237T, D270E, K358D, R437H, K441E
chain 3: not shown
Kd (FcgRIIaR [4]): 660 nM | Kd (FcgRIa [5]): 17 nM | Kd (FcgRIIb [6]): 22 nM

B32: IL6R-BP233/IL6R-L (antibody)
chain 1: B4 chain 1 with D235E, L236Y, D270H, D298Y, R332K, K358D, R437H, K441E
chain 2: not shown
Kd (FcgRIa [7]): 70 nM

B33: Fv4-IgG1 (antibody)
chain 1: not shown
chain 2: B6 chain 2
Kd (human FcRn): 1400 nM

Results, then the binder that gave them:

Kd (FcgRIIaR [1]): 1300 nM | Kd (FcgRIa [2]): 0.31 nM | Kd (FcgRIIb [3]): 430 nM
B1: IL6R-BP257/IL6R-L (antibody)
chain 1: B4 chain 1 with S126E, D298Y, K358D, R437H, K441E
chain 2: not shown

Kd (FcgRIIaR [4]): 34000 nM | Kd (FcgRIa [5]): 140 nM | Kd (FcgRIIb [6]): 720 nM
B2: IL6R-BP408/IL6R-L (antibody)
chain 1: B4 chain 1 with L237Q, D270E, K358D, R437H, K441E
chain 2: not shown

Kd (FcgRIIaR [4]): 830 nM | Kd (FcgRIa [5]): 40 nM | Kd (FcgRIIb [6]): 26 nM
B3: IL6R-BP419/IL6R-L (antibody)
chain 1: B4 chain 1 with L237F, D270E, K358D, R437H, K441E
chain 2: not shown

Kd (FcgRIIaR [4]): 360 nM | Kd (FcgRIa [5]): 10 nM | Kd (FcgRIIb [6]): 11 nM
B5: IL6R-BP404/IL6R-L (antibody)
chain 1: B4 chain 1 with L236Y, D270E, K358D, R437H, K441E
chain 2: not shown

Kd (FcgRIa [5]): 7.4 nM
B9: IL6R-BP264/IL6R-L (antibody)
chain 1: B4 chain 1 with D270E, K358D, R437H, K441E
chain 2: not shown

Kd (FcgRIIaR [1]): 860 nM | Kd (FcgRIa [2]): 3.1 nM | Kd (FcgRIIb [3]): 110 nM
B15: IL6R-BP259/IL6R-L (antibody)
chain 1: B4 chain 1 with S126D, K358D, R437H, K441E
chain 2: not shown

Kd (FcgRIa [9]): 4 nM
B17: IL6R-BP267/IL6R-L (antibody)
chain 1: B4 chain 1 with D270E, D298Y, R332A, K358D, R437H, K441E
chain 2: not shown

Kd (FcgRIa [9]): 9.6 nM | Kd (FcgRIIb [10]): 58 nM | Kd (FcgRIIaR [11]): 690 nM
B20: IL6R-BP300/IL6R-L (antibody)
chain 1: B4 chain 1 with V264I, D270E, D298Y, R332A, K358D, R437H, K441E
chain 2: not shown

Kd (FcgRIa [9]): 4.6 nM | Kd (FcgRIIb [10]): 130 nM | Kd (FcgRIIaR [11]): 1400 nM
B24: IL6R-BP339/IL6R-L (antibody)
chain 1: B4 chain 1 with V266M, D270E, D298Y, R332A, K358D, R437H, K441E
chain 2: not shown

Kd (FcgRIa [9]): 15 nM | Kd (FcgRIIb [10]): 150 nM | Kd (FcgRIIaR [11]): 2200 nM
B25: IL6R-BP338/IL6R-L (antibody)
chain 1: B4 chain 1 with V266L, D270E, D298Y, R332A, K358D, R437H, K441E
chain 2: not shown

Kd (FcgRIa [2]): 0.31 nM | Kd (FcgRIIb [3]): 380 nM
B26: IL6R-BP260/IL6R-L (antibody)
chain 1: B4 chain 1 with S126E, K358D, R437H, K441E
chain 2: not shown

Kd (FcgRIa [9]): 9.1 nM | Kd (FcgRIIb [10]): 120 nM | Kd (FcgRIIaR [11]): 1500 nM
B27: IL6R-BP333/IL6R-L (antibody)
chain 1: B4 chain 1 with V266F, D270E, D298Y, R332A, K358D, R437H, K441E
chain 2: not shown
